Consider 7 molecules from publication PMC13464484, “Ancestral proteins trace the emergence of substrate specificity and oligomerization within bacterial DEDDy dinucleases” (Science Advances, 2026).

For series [1], the target named is Alphaproteobacterial NrnC ortholog from Sphingomonas (Sphingomonas (genus only)). The experiment in a line: mass photometry; protein at 100 nM in phosphate-buffered saline, TwoMP instrument.
Series [2] concerns the target NrnC ortholog from Methylobacter (Methylobacter (genus only)). Nature of the series: SEC-MALS; purified protein at 1 to 2 mg/ml (~40 to 80 uM) on Superdex 200 Increase 10/300 GL in gel-filtration buffer (25 mM Hepes-NaOH, 150 mM NaCl, pH 7.5; 500 mM NaCl for ancestor A0), room temperature. (Size exclusion chromatography separates by hydrodynamic size, large species first.)

Series [3] has as its target NrnC ortholog from Thermosynechococcus (Thermosynechococcus (genus only)). The description is as above.
In series [4] the target is diDNase ortholog from Actinomadura (Actinomadura (genus only)). The description is as above.
Series [5] has as its target diDNase ortholog from Mycobacterium (Mycobacterium (genus only)). The experiment in a line: […] (~40 to 80 uM) […], pH 7.5; […], room temperature.
Series [6] concerns the target diDNase ortholog from Nocardia (Nocardia (genus only)). Nature of the series: SEC-MALS; purified protein at 1 to 2 mg/ml (~40 to 80 uM) on Superdex 200 Increase 10/300 GL in gel-filtration buffer (25 mM Hepes-NaOH, 150 mM NaCl, pH 7.5; 500 mM NaCl for ancestor A0), room temperature.
Series [7] concerns the molecule itself. Nature of the series: mass photometry; protein at 100 nM in phosphate-buffered saline, TwoMP instrument.

A word on the stoichiometry N: it is the number of molecules, sites or subunits per partner or assembly.

“Alphaproteobacterial NrnC ortholog from Sphingomonas (enzyme)”: in series [1], the percent dimers is greater than 85% and the stoichiometry N was 2. In the case of “NrnC ortholog from Methylobacter (enzyme)”, the stoichiometry N in series [2] is 8. Molecule “NrnC ortholog from Thermosynechococcus (enzyme)” showed a stoichiometry N in series [3] of 8. Molecule “diDNase ortholog from Actinomadura (enzyme)” had a stoichiometry N in series [4] of 2.

“diDNase ortholog from Mycobacterium (enzyme)”: the stoichiometry N in series [5] turned out to be 2. Turning to diDNase ortholog from Nocardia (enzyme), the stoichiometry N in series [6] was found to be 2.

B1: Alphaproteobacterial NrnC ortholog from Caulobacter (enzyme)
chain: MANFVHEGDLPDGVFADAEIIAIDSETMGLRLRRDPLCVVQLSAGDGDAHVVRLSRPDYDCPNLKALLTNPKVLKLFHFGRFDIAMFELHLGVVTAPVYCTKIASKLARTYTDRHGLKDVTRELLGVELSKVQQSSDWGAPSLSVDQVAYAASDVLHLHGLRLKLNAMLEREGRMALAQHAFDYLPHRASLDLAGWEEMDIFAHS
For B1, in series [7], the “stoichiometry N” value stood at 2.
